The supplement of paper PMC12042874
± gives the uncertainty stated by the source.

assay: amyloid nucleation score (Sup35N fusion, yeast selection) (log enrichment); library NNK2; higher = more nucleation; inactive = no reads after selection
Procedure, shortened: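 The nucleation score, computed with DiMSum, is the log enrichment of output over input reads, centred on the mode score of non-aggregating sequences. Sequences with under 100 input reads were dropped. Reads were generated by Illumina sequencing of plasmid inserts from psi-negative yeast with Sup35N fused to peptides of 20 random codons, induced with 100 μM copper sulfate for 24 hours and grown 7 days at 30°C on medium lacking adenine and uracil.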

In order of rising amyloid nucleation score:
1. HKWKII  -1.55 ± 0.75
2. ICKRIFGRYRYLSSEVDCVS  -1.54 ± 0.55
3. HLNWHLFILGLFGSATGEDI  -1.48 ± 1.1
4. HNCFFITRCSKVLRAYFSTL  -1.4 ± 1.1
5. HNEPG  -1.2 ± 0.75
6. HKGVM  -1.06 ± 0.5
7. IDFKHVL  -0.964 ± 0.39
8. HRLFSY  -0.776 ± 0.63
9. HKLLCGYTQSQHQRIGFQEF  -0.733 ± 1.1
10. HYRISLSIPHIDHAKAQALL  -0.603 ± 1
11. HQIHLSY  -0.593 ± 1.1
12. HPLVLWSIELCMMFFNSLTD  -0.565 ± 0.48
13. HQYGLNIKCFKCAILSKSGT  -0.562 ± 1
14. IDCWCSVSWATAL  -0.4 ± 0.64
15. HVYLSLEDQGILNSTECMQH  -0.393 ± 1.1
16. IAHRVITMP  -0.277 ± 1.1
17. HISLVSCHEM  -0.213 ± 1.1
18. HSSMLLSVFDLNARK  -0.174 ± 0.49
19. HVYPVWFCWLYSFRLHYSQV  -0.149 ± 0.56
20. IARSKVGRRYHVGRFRCVCV  -0.095 ± 0.44
21. HRVWRVAFVQVRSFIY  -0.038 ± 1
22. HVRHGESLFFANQA  -0.038 ± 1.1
23. HSFNYKFLLTI  -0.001 ± 0.54
24. HIRDTESTTLVRVRGCSSPK  0.07 ± 0.61
25. HYMDSNIVLNSAKSRRKDAW  0.132 ± 0.24
26. ICGVSFTGAIYARGGRLRIR  0.145 ± 0.63
27. HTKMYRAAARMVGAGNDFDM  0.146 ± 0.46
28. HSGMRMRPASSCSPKKP  0.189 ± 0.49
29. HLDLDPPM  0.284 ± 1.1
30. HYLVS  0.326 ± 0.49
31. IATAKTRQGFPLMSTLPAIV  0.37 ± 0.5
32. HQRSDYV  0.383 ± 0.74
33. HTVLPWYTIRYKWEGVGLTD  0.403 ± 0.45
34. HVADTGLIMQYVVSGLRVAG  0.602 ± 0.22
35. HWSYKDSLWVLDAAESVNMS  0.622 ± 0.66
36. ICFNTSLVPECKHSRSEFDS  0.643 ± 0.64
37. HITRGVVPTAV  0.655 ± 0.74
38. ICQCRSLRGRAYQVLGVNKS  0.731 ± 0.57
39. HVLFIAKLDFALTEFLRMCE  0.735 ± 0.19
40. ICIVVVCDFCIYRMCATGTV  0.735 ± 0.28
41. HYCSVRMWLTTKEADPRTSL  0.739 ± 0.31
42. HRCNMGLSWTGVYQRVGKSS  0.757 ± 0.57
43. HKGAARQPRPYMEAVIGPHP  0.792 ± 0.27
44. HTEFGRVGNICLGMRCEVDW  0.792 ± 0.4
45. HSLLSLLVVFYLQDRSRVIC  0.848 ± 0.13
46. IATTATSVGSVR  0.924 ± 0.25
47. IDFVVFFT  1.09 ± 0.27
48. HRYSRCIHLVKWVWCVQMIA  1.29 ± 0.32
49. HTHTWT  1.31 ± 0.38
50. HVSNSFKSFCN  1.52 ± 0.2
51. ICKGRCVASGWV  1.61 ± 0.14
52. HVILM  1.65 ± 0.33
53. IARVDLKFMESIRSHMV  1.71 ± 0.56
54. IADQTSSSDYLVRTVFNFSV  1.72 ± 0.099
55. HLPGWSGWRSDFDIHTSGVG  1.92 ± 0.25
56. HLCPTHLNNETLRTNFWAN  1.96 ± 0.19
57. HMYLDMPAQLTS  2.69 ± 0.062
58. HRTKRGRHFIFRTCKQYYPG  2.81 ± 0.071
59. HWSFS  2.85 ± 0.17
60. HSLFRLLRTSVHAEKSWSNS  2.88 ± 0.063
61. HVAFKLKVIVRIVSLTSGER  2.94 ± 0.075
62. IAIKM  3.25 ± 0.08
63. ICVECSYVYMTGGKV  3.79 ± 0.057
64. HSLRGTWMGMVSASCTPVDM  4.27 ± 0.057
65. HTTLHSSAIQVWSWRLLYFV  5.061 ± 0.049
66. ICACKSY  5.28 ± 0.076
67. HSCVYYTVYLRLFSMKGSEN  5.361 ± 0.038
68. HIILIEGSMVCQTLVRGDLV  5.514 ± 0.042
69. HVNYWGRLCMKKRCNVDVNH  5.634 ± 0.043
70. HSPYRFKSKCQRINMFCVIT  5.713 ± 0.047
71. IAMFT  6.299 ± 0.044
72. HSWILNHNIDVTIGNVTWSG  6.863 ± 0.03
73. HILRQGQYGYVCCASASYEC  7.312 ± 0.038
74. IAVNMCSFFVSDLHPMRWGY  7.495 ± 0.035
75. HVFMSTIKICRDQLNHQLRE  7.729 ± 0.037
76. HTWGAHRFCRWRNTSASDSW  8.703 ± 0.03
77. HNITLLQLNCKWLKMVYEWT  9.366 ± 0.061
78. ICIHYANNLLVNMRTKMCHK  9.369 ± 0.054
79. ICQRVDCSLCGPGWCTFVEH  9.398 ± 0.051

For HLFYCRSIGDILRSFGETPT, the amyloid nucleation score was “inactive”.
In the case of HNRSFILNTAKFLVVNNPLA, the amyloid nucleation score is reported as “inactive”.
For HRFVFGVYWVVVR, the amyloid nucleation score was “inactive”.
With HSMSKDLGWFHPNVNRFGFF the amyloid nucleation score was “inactive”.
With HSSAFMRMLMFRELRRNSDP the amyloid nucleation score was “inactive”.
For HVGLKSLHTMASWFMFDHNI, the amyloid nucleation score was “inactive”.
For HVSFLIDRNTMRGLMASSNN, the amyloid nucleation score was “inactive”.
